Test [1] deals with FITC-labeled pThr4 CTD peptide (16-mer, single phosphorylation at Thr4). Put plainly: fluorescence polarisation; CID protein titrated into 10 nM FITC-peptide; 50 mM Tris (pH 8.0), 300 mM NaCl, 10 mM BME; room temperature; triplicate; total binding model. For orientation: Polarisation of emitted light reports the rotation of a fluorescent probe.
The target of test [2] is FITC-labeled pSer2 CTD peptide (16-mer, single phosphorylation at Ser2). The test is described as above.
Test [3] deals with FITC-labeled pThr4 CTD peptide (16-mer, single phosphorylation at Thr4). Put plainly: fluorescence anisotropy (FA). The note with it: read at the highest protein concentration, 100 µM, read off a plot.
Test [4] concerns the target FITC-labeled pSer2 CTD peptide (16-mer, single phosphorylation at Ser2). Put plainly: fluorescence anisotropy (FA). The note with it: read at the highest protein concentration, 100 µM, read off a plot.
For a further test, the system named is pThr^4 (6D7) antibody. Put plainly: Dot blot of pThr^4 CTD peptide after kinase treatment. The format is biochemical. The note with it: pThr^4 CTD peptide (18-mer), 10 μg or 5 μg, kinase-treated vs no-kinase control (fig. S1C). An excerpt: Another reported Thr^4 antibody masking effect in vitro is observed when Ser^2, two residues upstream of pThr^4, is phosphorylated (pSer^2Pro^3pThr^4Ser^5). Despite the in vitro blocking effect, this potential impediment posed to pThr^4 identification is less concerning under physiological conditions as pSer^2/pThr^4 double phosphorylation is rather rare in cells ([19]). Subsequent biochemical and cellular experiments have shown that, although Ser^2 and Thr^4 phosphorylations occur around the same time during transcription cycle, they tend to occur on different heptads because kinases avoid placing a phosphate on the neighboring Ser^2 when Thr^4 is phosphorylated and vice versa ([19]). […]
Another phosphorylation mark co-occurring with Thr^4 on the same heptad is Tyr1 (accounts for ~5% of doubly phosphorylated heptads) ([19]). […] To corroborate this, we evaluated the possibility that Tyr1 phosphorylation affects pThr^4 detection by treating pThr^4-containing CTD peptide with the Tyr1 kinase, c-Abl (fig. S1B). […]
Serial dilutions of pThr^4 CTD peptide or Dyrk1a/Abl1 kinase-treated pThr^4 CTD peptide were spotted on an activated nitrocellulose membrane. […] The membrane was washed three times and visualized on a LI-COR Odyssey CLx image reader. […]

Test [5] has as its system pSer^2 Pol II in HEK293 nuclear extract. Briefly: Western blot, pSer^2 recognition in HEK293 nuclear extract treated with phosphatase. The note with it: HEK293 nuclear extract treated with Ssu72, antibody 3E10; vs untreated and inactive Ssu72 mutant. The format is biochemical, human.
The test system of the next test is RNA Pol II CTD. The note with it: cited from earlier work. An excerpt: The reported enrichment of pThr^4pSer^5 double phosphorylation in cells raised concerns for Thr^4 phosphorylation detection as the masking effect by adjacent phosphorylation may block pThr^4 recognition leading to false-negative results ([19]). To address this issue, we explored the possibility of eliminating the masking effect on pThr^4 antibody recognition by selectively removing the interfering phosphate groups on Ser^5 of the CTD. Our prior biochemical and structural analyses have established phosphatase Ssu72 as a highly specific phosphatase for Ser^5 of the CTD, distinguishing Ser^5 from ...

In test [6] the target is FITC-labeled pThr4 CTD peptide (16-mer, single phosphorylation at Thr4). Put plainly: fluorescence polarisation; CID protein titrated into 10 nM FITC-peptide; 50 mM Tris (pH 8.0), 300 mM NaCl, 10 mM BME; room temperature; triplicate; total binding model. The source holds these as a separate data set.
Test [7] has as its target FITC-labeled pSer2 CTD peptide (16-mer, single phosphorylation at Ser2). The description is as above. This is another data set of the same source.
Test [8] has as its target T1, RNA Pol II CTD peptide CTD peptide (Homo sapiens, UniProt P24928, not fully specified (residue 4); also: pThr4 (heptad position 4, which repeat(s) not given here)).
T1 chain: YSPTSPSYSPTSPS
Briefly: fluorescence anisotropy.

Test [9] addresses T2, RNA Pol II CTD peptide CTD peptide (Homo sapiens, UniProt P24928, not fully specified (residue 2); also: pSer2 (heptad position 2, which repeat(s) not given here)).
T2 chain: YSPTSPSYSPTSPS
Briefly: fluorescence anisotropy.

Like-named read-outs stand apart in the source and are kept apart here. Where no end group is shown, it is not given here.

On to “RPRD2-CID (residues 19 to 149) (from UniProt Q5VT52 19-149) (domain or fragment)”, for which the values for the Kd in test [1] and in test [2] were 6.6 µM and 8.7 µM, respectively.
As for “RPRD1A-CID (residues 2 to 133) (from UniProt Q96P16) R106A”, the response amounted to 25 mP in test [3] (pThr4 CTD peptide, parent: est. 87) and 17 mP in test [4] (pSer2 CTD peptide, parent: est. 110).
As to “SCAF4-CID (residues 1 to 139) (from UniProt O95104) R112A”, the response in test [3] (pThr4 CTD peptide, parent: est. 77) came out at 15 mP; in test [4] (pSer2 CTD peptide, parent: est. 170), 17 mP.
Turning to “RPRD2-CID (residues 19 to 149) (from UniProt Q5VT52) R122A”, the response in test [3] (pThr4 CTD peptide, parent: est. 120) is 16 mP; in test [4] (pSer2 CTD peptide, parent: est. 180), 16 mP.
As to “RPRD1B-CID (residues 2 to 133) (from UniProt Q9NQG5) R106A”, the response in [3] (FITC-labeled pThr4 CTD peptide, parent: est. 150) was 8 mP; in test [4] (FITC-labeled pSer2 CTD peptide, parent: est. 170), 8 mP.
As to c-Abl: Tyr1 kinase, the “effect of kinase treatment on pThr^4 antibody detection” value in the test with pThr^4 (6D7) antibody was “does not affect pThr^4 antibody recognition”.

B1: Ssu72: phosphatase highly specific for Ser^5 of the CTD (protein)
chain: MTDPSKLAVAVVCSSNMNRSMEAHNFLAKKGFNVRSYGTGERVKLPGMAFDKPNVYEFGTKYEDIYRDLESKDKEFYTQNGLLHMLDRNRRIKKCPERFQDTKEQFDIIVTVEERVYDLVVMHMESMESVDNRPVHVLNVDVVDNAEDALMGAFVITDMINMMAKSTDLDNDIDELIQEFEERRKRVILHSVLFY
modifications: left off: 6xHis, end not stated, state not stated | SUMO, end not stated, state not stated
For B1, the “pSer^2 signal recognition” value in test [5] is “no significant difference”. Besides, in the test with RNA Pol II CTD (MS and biochemical assays), the “effect on Ser^5 phosphorylation on the CTD” value is “effectively eradicating Ser^5 phosphorylation” and the “effect on levels of pSer^2 or pThr^4” value is on record as “no effect”. Besides, the “activity against pSer^7 relative to pSer^5” value in the test with RNA Pol II CTD is listed as “about three magnitudes lower”.

B2: RPRD1B-CID (residues 2 to 133) (domain or fragment)
chain: SSFSESALEKKLSELSNSQQSVQTLSLWLIHHRKHAGPIVSVWHRELRKAKSNRKLTFLYLANDVIQNSKRKGPEFTREFESVLVDAFSHVAREADEGCKKPLERLLNIWQERSVYGGEFIQQLKLSMEDSK
Turning to B2, the results for the Kd in test [6] and in test [7] were 5.3 µM and 22.8 µM, respectively.

B3: SCAF4-CID (residues 1 to 139) (domain or fragment)
chain: MDAVNAFNQELFSLMDMKPPISRAKMILITKAAIKAIKLYKHVVQIVEKFIKKCKPEYKVPGLYVIDSIVRQSRHQFGTDKDVFGPRFSKNITATFQYLYLCPSEDKSKIVRVLNLWQKNGVFKIEIIQPLLDMAAGTS
For B3, the Kd came out at 8.1 µM in test [6] and 6.7 µM in test [7].

B4: RPRD1A-CID (residues 2 to 133) (domain or fragment)
chain: SAFSEAALEKKLSELSNSQQSVQTLSLWLIHHRKHSRPIVTVWERELRKAKPNRKLTFLYLANDVIQNSKRKGPEFTKDFAPVIVEAFKHVSSETDESCKKHLGRVLSIWEERSVYENDVLEQLKQALYGDK
For the molecule B4, the Kd in [6] was 12.3 µM; in test [7] it was 13.8 µM.

B5: CHERP CID (protein)
chain: LLEETQLDMNEFDNLLQPIIDTCTKDAISAGKNWMFSNAKSPPHCELMAGHLRNRITADGAHFELRLHLIYLINDVLHHCQRKQARELLAALQKVVVPIYCTSFLAVEEDKQQKIARLLQLWEKNGYFDDSIIQQLQSPALGLGQYQ
B5: the figures for the Kd in test [8] and in [9] were 3.9 µM and 10.7 µM, respectively.

The term Kd denotes the free concentration of one partner at which half of the binding sites on the other are occupied at equilibrium, for simple one-to-one binding.

These data come from paper PMC11378909, “Thr^4 phosphorylation on RNA Pol II occurs at early transcription regulating 3′-end processing” (Science Advances, 2024).
